Reference: patent publication US20230295310A1 (ABCELLERA BIOLOGICS, published 2023)

Assays:
[1] = target: T1, human CD3 expressed on cells (Jurkat cells; human primary T cells) (human, UniProt P07766 23-207; P04234 22-171; P09693 23-182); experiment: flow cytometry, 25 nM, Jurkat cells
T1 construct: whole, on cells
Protocol: (§1) Purified antibodies were confirmed to bind CD3 expressed on cells using the CytoFLEX S or LX flow cytometers (Beckman Coulter). Antibodies were diluted to 25 nM in FACS buffer (PBS+2% FBS) and were incubated with CD3-expressing cells for 30 minutes at 4° C. […] The median fluorescence intensity of the binding signal for each antibody was normalized to the isotype control to obtain a fold over isotype value. An antibody with a fold over isotype (FOI) of ≥10 was considered to be positive for binding.

[2] = target: T2, cynomolgus monkey CD3 expressed on cyno primary T cells (cynomolgus monkey, UniProt Q95LI5 22-198; Q95LI8 22-171; Q95LI7 23-181); experiment: flow cytometry, cyno primary T cells
T2 construct: whole, on cells; CD3 complex on purified cynomolgus monkey CD3 pan T cells; also called cyno CD3
How it was run: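 Values are fold over isotype: median fluorescence intensity of each antibody relative to isotype control after a 30-minute, 4° C incubation at 25 nM with CD3-bearing cells in PBS containing 2% FBS.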

[3] = target: T1, human CD3 expressed on cells (Jurkat …); experiment: flow cytometry, 25 nM, human primary T cells
Protocol: as §1

T2 sequence (Q95LI5 22-198, chain 1 of 3): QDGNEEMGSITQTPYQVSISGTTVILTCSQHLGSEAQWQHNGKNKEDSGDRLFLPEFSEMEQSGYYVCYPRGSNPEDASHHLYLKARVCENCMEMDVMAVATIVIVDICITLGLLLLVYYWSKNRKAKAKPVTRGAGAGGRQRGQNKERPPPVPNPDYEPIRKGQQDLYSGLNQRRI
T2 sequence (Q95LI8 22-171, chain 2 of 3): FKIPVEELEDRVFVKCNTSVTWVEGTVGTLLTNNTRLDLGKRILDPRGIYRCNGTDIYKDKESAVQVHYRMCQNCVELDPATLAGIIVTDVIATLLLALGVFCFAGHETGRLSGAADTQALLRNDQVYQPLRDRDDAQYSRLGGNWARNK
T2 sequence (Q95LI7 23-181, chain 3 of 3): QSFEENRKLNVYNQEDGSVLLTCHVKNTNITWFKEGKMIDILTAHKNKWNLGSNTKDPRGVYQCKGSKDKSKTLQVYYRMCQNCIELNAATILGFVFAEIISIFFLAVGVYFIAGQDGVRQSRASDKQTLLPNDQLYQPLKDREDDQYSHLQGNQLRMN
T1 sequence (P07766 23-207, chain 1 of 3): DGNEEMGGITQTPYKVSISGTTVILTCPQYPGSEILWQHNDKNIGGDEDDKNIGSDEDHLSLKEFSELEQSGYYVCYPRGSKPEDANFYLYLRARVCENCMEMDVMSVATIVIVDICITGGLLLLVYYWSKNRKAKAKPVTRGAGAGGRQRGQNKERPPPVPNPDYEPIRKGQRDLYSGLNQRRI
T1 sequence (P04234 22-171, chain 2 of 3): as the sequence (Q95LI8 22-171, chain 2 of 3) above, with V5I, K15N, V20I, T32S, N33D, N34I, A64T, N74S, L83V, R141H counted along it
T1 sequence (P09693 23-182, chain 3 of 3): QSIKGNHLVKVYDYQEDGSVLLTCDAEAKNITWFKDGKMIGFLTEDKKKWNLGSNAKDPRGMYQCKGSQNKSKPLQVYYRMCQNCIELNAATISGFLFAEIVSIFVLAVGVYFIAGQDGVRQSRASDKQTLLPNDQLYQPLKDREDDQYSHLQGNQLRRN

Binding (FOI) [1] [FOI]	Binding (FOI) [3] [FOI]	Binder	binding result [2]
166	210	mAb 201 (antibody, V domains shown, VH/VL only) VH: QVQLVESGGGVVQPGRSLRLSCAASGFTFSGYGMHWVRQAPGKGLEWVAIIYYNGKKEYYADSVKGRFTISRDNSKNTLYLQMNSLRAEDTAVYYCTRGEGYNWFDPWGQGTLVTVSS VL: EIVMTQSPATLSVSPGERATLSCRASQSVSSSLAWYQQKPGQAPRLLIYGASTRATGIPARFSGSGSGTEFTLTISSLQSEDFAVYYCQQYNNWPLTFGGGTKVEIK	no binding (tested: FOI <10 (FOI >=10 = positive); 25 nM)
186	198	mAb 206 (antibody, V domains shown, VH/VL only) VH: QVQLVESGGGVVQPGRSLRLSCAASGFTFSGYGMHWVRQAPGKGLEWVAIIYYNGNNRKYADSVKGRFTISRDNSKNTVSLQMNSLRVEDTAIYYCTRGDGYNWFVTWGQGTLVTVSS VL: EIVMTQSPATLSVSPGERATLSCRASQSVSSNLAWYHQKPGQAPRLLIYGASTRATGIPVRFSGSGSGTEFTLTISSLQSEDFAVYYCQQYNNWPLTFGGGTKVEIK	no binding (tested: FOI <10 (FOI >=10 = positive); 25 nM)
182	218	mAb 216 (antibody, V domains shown, VH/VL only) VH: QVQLVESGGGVVQPGRSLRLSCAASGFTFSGYGMHWVRQAPGKGLEWVAIIYYNGKKEYYADSVKGRFTISRDNSKNTLYLQMNSLRAEDTAVYYCTRGEGYNWFDPWGQGTLVTVSS VL: EIVMTQSPATLSVSPGERATLSCRASQSVSSNLAWYQQKPGQAPRLLIYGASTRATGIPARFSGSGSGTEFTLTISSLQSEDFAVYYCKQYKNWPLTFGGGTKVEIK	no binding (tested: FOI <10 (FOI >=10 = positive); 25 nM)
180	216	mAb 222 (antibody, V domains shown, VH/VL only) VH: QVQLVESGGGVVQPGRSLRLSCAASGFTFSGYGMHWVRQAPGKGLEWVAIIYYNGKKEYYADSVKGRFTISRDNSKNTVYLQMNSLRAEDTAVYYCTRGEGYNWFDPWGQGTLVTVSS VL: KIVMTQSPATLSVSPGERATLSCRASQSVSSNLAWYQQKPGQAPRLLIYGASTRATGIPARFSGSGSGTEFTLTISSLQSEDFAVYYCKQYNNWPLTFGGGTKVEIK	no binding (tested: FOI <10 (FOI >=10 = positive); 25 nM)
176	199	mAb 226 (antibody, V domains shown, VH/VL only) VH: QVQLVESGGGVVQPGRSLRLSCAASGFTFSGYGMHWVRQAPGKGLEWVAIIYYNGNNRKYADSVKGRFTISRDNSKNTVSLQMNSLRVEDTAIYYCTRGDGYNWFVTWGQGTLVTVSS VL: EIVMTQSPATLSVSPGERATLSCRASQSISSNLAWYHQKPGQAPRLLIYGASTRATGIPVRFSGSGSGTEFTLTISSLQSEDFALYYCQQYNNWPLTFGGGTKVEIK	no binding (tested: FOI <10 (FOI >=10 = positive); 25 nM)
173	214	mAb 217 (antibody, V domains shown, VH/VL only) VH: QVQLVESGGGVVQPGRSLRLSCAASGFTFSGYGMHWVRQAPGKGLEWVAIIYYNGKKEYYADSVKGRFTIFRDNSKNTVYLQMKSLRAEDTAVYYCTRGEGYNWFDPWGQGTLVTVSS VL: not shown	no binding (tested: FOI <10 (FOI >=10 = positive); 25 nM)
181	239	mAb 221 (antibody, V domains shown, VH/VL only) VH: QVQLVESGGGVVQPGGSLRLSCAASGFTFSGYGMHWVRQAPGKGLEWVAIIWYNGRKTYYAESVKGRFTISRDNSKNTLSLQMNSLRVEDTAVYYCTAGQGYNWFDPWGQGTLVTVSS VL: EIVMTQSPATLSVSPGERATLSCRASQSVSSNLAWYQQKPGQAPRLLIYGASTRATGIPARFSGSGSGTEFTLTISSLQSEDFAVYYCQQFNAWPLTFGGGTKMEIK	no binding (tested: FOI <10 (FOI >=10 = positive); 25 nM)
186	228	mAb 209 (antibody, V domains shown, VH/VL only) VH: QVQLVESGGGVVQPGRSLRLSCAASGFTFSGYGMHWVRQAPGKGLEWVAIIYYNGKKEYYADSVKGRFTVSRDNSKNMLYLQMNSLRAEDTAVYYCTRGEGYNWFDPWGQGTLVTVSS VL: EIVMTQSPATLSVSPGERATLSCRASQTVSSNLAWYQQKPGQAPRLLIYGASTRATGIPARFSGSGSGTEFTLTISSLQSEDFAVYYCKQYNNRPLTFGGGTKVEIK	no binding (tested: FOI <10 (FOI >=10 = positive); 25 nM)
179	192	mAb 218 (antibody, V domains shown, VH/VL only) VH: QVQLVESGGGVVQPGRSLRLSCAASGFTFSGYGMHWVRQAPGKGLEWVAIIYYNGNNRKYADSVRGRFTISRDNSKNTVSLQMNSLRVEDTAIYYCTRGDGYNWFVTWGQGTLVTVSS VL: EIVMTQSPATLSVSPGERATLSCRASQSVSSNLAWYYQKPGQAPRLLIYGASTRATGIPVRFSGSGSGTEFTLTISSLQSEDFAVYYCQQYNNWPLTFGGGTKVEIK	no binding (tested: FOI <10 (FOI >=10 = positive); 25 nM)
180	216	mAb 205 (antibody, V domains shown, VH/VL only) VH: QVQLVESGGGVVQPGKSLRLSCAASGFTFSGYGMHWVRQAPGKGLEWVAIIYYNGKKEYYADSVKGRFTISRDNSKNTLYLQMNSLRAEDTAVYYCTRGEGYNWFDPWGQGTLVTVSS VL: EIVMTQSPATLSVSPGERATLSCRASQSVSSNLAWYQQKPGQAPRLLIYGASTRATGIPARFSGSGSGTEFTLTISSLQSEDFAVYYCKQYNNWPLTFGGGTKVEIK	no binding (tested: FOI <10 (FOI >=10 = positive); 25 nM)
167	202	mAb 215 (antibody, V domains shown, VH/VL only; the VL is printed as a fragment of 18 residues only) VH: QVQLVESGGGVVQPGRSLRLSCAATGFTFSGYGMHWVRQAPGKGLEWVAIIYYNGNNRKYADSVKGRFTISRDNSKNTVSLQMNSLRVEDTAIYYCTRGDGYNWFVTWGQGTLVTVSS VL: EIVMTQSPATLSVSPGERATLSCRASQSVSSNLAWYRQKPGQAPRLLIYGASTRATGIPVRFSGSGSGTEFTLTISSLQSEDFAVYYCQQYNNWPLTFGGGTKVEIK	no binding (tested: FOI <10 (FOI >=10 = positive); 25 nM)
181	212	mAb 224 (antibody, V domains shown, VH/VL only) VH: QVQLVESGGGVVQPGRSLRLSCAASGFTFSGYGMHWVRQAPGKGLEWVAIIYYNGKKEYYADSVKGRFTISRDNSKNMLYLQMNGLRAEDTAIYYCTRGEGYNWFDPWGQGTLVTVSS VL: EIVMTQSPATLSVSPGERTTLSCRASQSVSNNLAWYQQKPGQAPRLLIYGASTRATGIPARFSGSGSGTEFTLTISSLQSEDFAVYYCQQYNNWPLTFGGGTKVEIK	no binding (tested: FOI <10 (FOI >=10 = positive); 25 nM)
201	285	mAb 203 (antibody, V domains shown, VH/VL only) VH: QVQLVESGGGVVQPGGSLRLSCAASGFTFRGYGMHWVRQAPGKGLEWVAIIYYNGRKTYYAESVKGRFTISRDNSKNTLSLQMNSLRVEDTAVYYCTAGQGYNWFDPWGQGTLVTVSS VL: EIVMTQSPATLSVSPGERATLSCRASQSVSSNLAWYQQKPGQAPRLLIYGASTRATGIPARFSGSGSGTEFTLTISSLQSEDFAVYYCQQFNAWPLTFGGGTKMEIK	no binding (tested: FOI <10 (FOI >=10 = positive); 25 nM)
162	181	mAb 204 (antibody, V domains shown, VH/VL only) VH: QVQLVESGGGVVQSGRSLRLSCAASGFTFSGYGMHWVRQAPGKGLEWVAIVYYDGKNKYYADSVKGRFTISRDNSKNTLYLQMNSLRAEDTAVYYCVRGEGYNWFDPWGQGTLVTVSS VL: EIVMTQSPATLSVSPGERATLSCRASQSVSSNLAWYQQKPGQVPRLLIYGASTRATGIPARFSGSGSGTQFTLTISSLQSEDFAVYYCQQYNNWPLTFGGGTKVEIK	no binding (tested: FOI <10 (FOI >=10 = positive); 25 nM)
163	206	mAb 193 (antibody, V domains shown, VH/VL only) VH: QVQLVESGGGVVQPGRSLRLSCAASGFTFSGYGMHWVRQAPGKGLEWVAIIYYNGNNRKYADSVKGRFTISRDNSKNTVSLQMNSLRVEDTAIYYCTRGDGYNWFVTWGQGTLVTVSS VL: EIVMTQSPATLSVSPGERATLSCRASQSVSSNLAWYHQKPGQAPRLLIYGASTRATGIPVRFSGSGSGTEFTLTISSLQSDDFAVYYCQQYNNWPLTFGGGTKVEIK	no binding (tested: FOI <10 (FOI >=10 = positive); 25 nM)
168	192	mAb 210 (antibody, V domains shown, VH/VL only) VH: QVQLVESGGGVVQPGRSLRLSCAASGFTFSGYGMHWVRQAPGKGLEWLAIIYYNGNNRKYADSVKGRFTISRDNSKNTVSLQMNSLRVEDTAMYYCTRGDGYNWFVTWGQGTLVTVSS VL: EIVMTQSPATLSVSPGERAALSCRASQSVTSNLAWYHQKPGQAPRLLIYGASTRATGIPVRFSGSGSGTEFTLTISSLQSEDFAVYYCQQYNNWPLTFGGGTKVENK	no binding (tested: FOI <10 (FOI >=10 = positive); 25 nM)
